T1: SHANK1, Q9Y566
T1 sequence (Q9Y566 658-767, limits assumed, looked up): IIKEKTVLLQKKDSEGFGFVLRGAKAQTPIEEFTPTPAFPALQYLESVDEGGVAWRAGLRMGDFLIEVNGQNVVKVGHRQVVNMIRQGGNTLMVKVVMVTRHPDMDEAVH

T2: MPDZ_12, O75970
T2 sequence (O75970 1857-1958, limits assumed, looked up): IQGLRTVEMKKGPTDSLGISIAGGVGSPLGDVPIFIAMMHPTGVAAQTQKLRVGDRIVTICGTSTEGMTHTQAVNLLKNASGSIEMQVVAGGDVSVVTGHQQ

T3: GRIP1_5, Q9Y3R0
T3 sequence (Q9Y3R0 568-668, limits assumed, looked up): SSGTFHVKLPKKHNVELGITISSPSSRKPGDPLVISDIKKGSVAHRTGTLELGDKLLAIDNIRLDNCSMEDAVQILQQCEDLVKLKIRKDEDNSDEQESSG

T4: APBA3_1, O96018
T4 sequence (O96018 389-490, limits assumed, looked up): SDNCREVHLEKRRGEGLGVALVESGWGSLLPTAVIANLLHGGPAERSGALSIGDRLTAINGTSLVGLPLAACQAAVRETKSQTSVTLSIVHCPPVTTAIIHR

T5: PDZD7_3, Q9H5P4
T5 sequence (Q9H5P4 857-944, limits assumed, looked up): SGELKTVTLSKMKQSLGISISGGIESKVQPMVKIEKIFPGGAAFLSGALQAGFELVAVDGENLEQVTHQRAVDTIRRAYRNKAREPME

T6: NHERF3_4, Q5T2W1
T6 sequence (Q5T2W1 373-468, limits assumed, looked up): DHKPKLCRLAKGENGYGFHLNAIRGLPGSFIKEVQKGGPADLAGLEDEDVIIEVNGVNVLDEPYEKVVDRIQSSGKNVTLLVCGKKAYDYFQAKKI

T7: RAPGEF6, Q8TEU7
T7 sequence (Q8TEU7 525-625, limits assumed, looked up): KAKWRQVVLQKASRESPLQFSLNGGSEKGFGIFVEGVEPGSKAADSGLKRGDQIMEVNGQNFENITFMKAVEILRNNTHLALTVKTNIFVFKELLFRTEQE

T8: HTRA4, P83105
T8 sequence (P83105 378-476, limits assumed, looked up): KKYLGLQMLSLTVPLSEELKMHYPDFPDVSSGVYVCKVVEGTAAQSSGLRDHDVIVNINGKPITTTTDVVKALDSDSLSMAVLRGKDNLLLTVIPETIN

T9: LNX2_2, Q8N448
T9 sequence (Q8N448 334-432, limits assumed, looked up): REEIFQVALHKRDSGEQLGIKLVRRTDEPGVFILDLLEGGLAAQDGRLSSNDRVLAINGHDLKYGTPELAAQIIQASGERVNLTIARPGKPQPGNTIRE

T10: APBA2_2, Q99767
T10 sequence (Q99767 654-744, limits assumed, looked up): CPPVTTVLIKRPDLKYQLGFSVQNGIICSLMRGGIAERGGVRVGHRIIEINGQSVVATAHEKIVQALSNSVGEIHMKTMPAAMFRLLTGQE

T11: PTPN13_1, Q12923
T11 sequence (Q12923 1088-1188, limits assumed, looked up): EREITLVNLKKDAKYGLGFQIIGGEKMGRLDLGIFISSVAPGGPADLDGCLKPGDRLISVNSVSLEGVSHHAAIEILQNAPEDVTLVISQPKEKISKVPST


Experiments:
Experiment in all cases: holdup assay
Parameters in all cases: key: below the threshold = too weak to quantify, mostly under pKd 3.1 to 4
Settings in all cases: plain residues with an end cap or a label only (N-terminal biotin on a linker: ado-ado)
[1] = biological target: AHNAK1, Q09666
Chain of AHNAK1, Q09666 (Q09666 4-100): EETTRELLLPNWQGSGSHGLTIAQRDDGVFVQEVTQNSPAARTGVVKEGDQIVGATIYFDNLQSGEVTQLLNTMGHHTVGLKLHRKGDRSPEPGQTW

[2] = biological target: Inadl_1, Q8NI35
Chain of Inadl_1, Q8NI35 (Q8NI35 113-229): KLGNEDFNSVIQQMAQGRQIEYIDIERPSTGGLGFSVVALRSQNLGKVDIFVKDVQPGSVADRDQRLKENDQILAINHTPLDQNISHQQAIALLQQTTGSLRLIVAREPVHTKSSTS

[3] = biological target: LNX1_2, Q8TBB1
Chain of LNX1_2, Q8TBB1 (Q8TBB1 371-470): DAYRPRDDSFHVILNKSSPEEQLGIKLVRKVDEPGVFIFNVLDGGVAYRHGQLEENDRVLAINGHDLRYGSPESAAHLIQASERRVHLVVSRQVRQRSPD

[4] = biological target: MAGI2_6, Q86UL8
Chain of MAGI2_6, Q86UL8 (Q86UL8 1141-1229): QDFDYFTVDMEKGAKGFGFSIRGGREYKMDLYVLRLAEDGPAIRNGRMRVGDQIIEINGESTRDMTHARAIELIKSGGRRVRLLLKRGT

[5] = biological target: T1, SHANK1, Q9Y566
[6] = biological target: T2, MPDZ_12, O75970
[7] = biological target: T3, GRIP1_5, Q9Y3R0
[8] = biological target: Inadl_9, Q8NI35
Chain of Inadl_9, Q8NI35 (Q8NI35 1530-1615): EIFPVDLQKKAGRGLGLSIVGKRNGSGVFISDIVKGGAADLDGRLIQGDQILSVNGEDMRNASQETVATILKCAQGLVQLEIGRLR

[9] = biological target: DLG4_2, P78352
Chain of DLG4_2, P78352 (P78352 155-259): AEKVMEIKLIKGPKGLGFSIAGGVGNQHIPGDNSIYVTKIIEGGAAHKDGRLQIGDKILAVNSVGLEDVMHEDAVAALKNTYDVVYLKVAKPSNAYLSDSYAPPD

[10] = biological target: PTPN3, P26045
Chain of PTPN3, P26045 (P26045 505-587): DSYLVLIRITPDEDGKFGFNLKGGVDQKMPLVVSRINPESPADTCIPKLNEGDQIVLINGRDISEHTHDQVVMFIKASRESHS

[11] = biological target: T4, APBA3_1, O96018
[12] = biological target: T5, PDZD7_3, Q9H5P4
[13] = biological target: PDZRN4_1, Q6ZMN7
Chain of PDZRN4_1, Q6ZMN7 (Q6ZMN7 213-318): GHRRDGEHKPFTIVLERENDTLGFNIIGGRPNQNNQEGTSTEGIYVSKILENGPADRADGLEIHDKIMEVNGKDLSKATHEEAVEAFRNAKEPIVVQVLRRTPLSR

[14] = biological target: DLG4_3, P78352
Chain of DLG4_3, P78352 (P78352 306-403): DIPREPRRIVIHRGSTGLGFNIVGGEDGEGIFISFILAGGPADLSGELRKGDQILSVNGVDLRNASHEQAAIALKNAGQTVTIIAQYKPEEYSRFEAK

[15] = biological target: T6, NHERF3_4, Q5T2W1
[16] = biological target: T7, RAPGEF6, Q8TEU7
[17] = biological target: MAGI2_5, Q86UL8
Chain of MAGI2_5, Q86UL8 (Q86UL8 915-1017): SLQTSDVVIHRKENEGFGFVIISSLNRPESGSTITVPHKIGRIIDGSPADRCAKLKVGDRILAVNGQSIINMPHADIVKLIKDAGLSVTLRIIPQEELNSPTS

[18] = biological target: T8, HTRA4, P83105
[19] = biological target: FRMPD4, Q14CM0
Chain of FRMPD4, Q14CM0 (Q14CM0 67-160): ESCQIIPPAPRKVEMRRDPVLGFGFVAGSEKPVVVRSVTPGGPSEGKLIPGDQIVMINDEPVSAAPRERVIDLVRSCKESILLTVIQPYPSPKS

[20] = biological target: DLG1_1, Q12959
[21] = biological target: LIMK2, P53671
Chain of LIMK2, P53671 (P53671 143-248): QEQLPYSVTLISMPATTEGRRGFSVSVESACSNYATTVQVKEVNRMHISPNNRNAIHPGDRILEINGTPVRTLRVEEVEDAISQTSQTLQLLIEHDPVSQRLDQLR

[22] = biological target: LNX1_1, Q8TBB1
Chain of LNX1_1, Q8TBB1 (Q8TBB1 261-371): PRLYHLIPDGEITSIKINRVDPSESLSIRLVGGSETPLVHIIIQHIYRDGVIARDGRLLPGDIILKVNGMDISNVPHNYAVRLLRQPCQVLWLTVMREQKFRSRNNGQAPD

[23] = biological target: T9, LNX2_2, Q8N448
[24] = biological target: Inadl_3, Q8NI35
Chain of Inadl_3, Q8NI35 (Q8NI35 359-469): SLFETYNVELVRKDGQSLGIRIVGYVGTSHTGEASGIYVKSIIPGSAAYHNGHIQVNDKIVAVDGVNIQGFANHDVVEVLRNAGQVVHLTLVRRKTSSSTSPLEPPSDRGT

[25] = biological target: T10, APBA2_2, Q99767
[26] = biological target: DLG2_2, Q15700
Chain of DLG2_2, Q15700 (Q15700 189-283): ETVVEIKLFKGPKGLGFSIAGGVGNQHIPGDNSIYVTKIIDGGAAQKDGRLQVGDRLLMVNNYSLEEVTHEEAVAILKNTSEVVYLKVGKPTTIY

[27] = biological target: T11, PTPN13_1, Q12923

Binder | pKd [1] | pKd [2] | pKd [3] | pKd [4] | pKd [5] | pKd [6] | pKd [7] | pKd [8] | pKd [9] | pKd [10] | pKd [11] | pKd [12] | pKd [13] | pKd [14] | pKd [15] | pKd [16] | pKd [17] | pKd [18] | pKd [19] | pKd [20] | further results
QLSFNTDTLC [ABCA2, Q9BZC7] | below the threshold | below the threshold | below the threshold | below the threshold | below the threshold | below the threshold | below the threshold | below the threshold | 3.61 | 4.09 | below the threshold | below the threshold | below the threshold | below the threshold | below the threshold | below the threshold | 3.73 | below the threshold | 4.03 | 3.87 | pKd [21]: below the threshold; pKd [22]: below the threshold; pKd [23]: 3.78; pKd [24]: below the threshold; pKd [25]: below the threshold; pKd [26]: below the threshold; pKd [27]: below the threshold
QKAPTKEFYA [SDC2, P34741] | below the threshold | below the threshold | 3.5 | below the threshold | 3.53 | 3.5 | below the threshold | below the threshold | below the threshold | 4.2 | below the threshold | below the threshold | below the threshold | below the threshold | 3.82 | 3.54 | below the threshold | below the threshold | 3.7 | below the threshold | pKd [21]: below the threshold; pKd [22]: below the threshold; pKd [23]: below the threshold; pKd [24]: below the threshold; pKd [25]: below the threshold; pKd [26]: below the threshold; pKd [27]: below the threshold
EKCGKEFSEF [PRKACA, P17612] | below the threshold | below the threshold | below the threshold | below the threshold | below the threshold | below the threshold | below the threshold | below the threshold | below the threshold | 3.98 | below the threshold | below the threshold | below the threshold | below the threshold | below the threshold | below the threshold | 3.8 | below the threshold | below the threshold | below the threshold | pKd [21]: below the threshold; pKd [22]: below the threshold; pKd [23]: 3.49; pKd [24]: below the threshold; pKd [25]: below the threshold; pKd [26]: below the threshold; pKd [27]: below the threshold
EDLEDEWEVI [TECPR2, O15040] | below the threshold | below the threshold | below the threshold | 3.56 | below the threshold | below the threshold | below the threshold | below the threshold | below the threshold | below the threshold | below the threshold | 3.92 | below the threshold | below the threshold | below the threshold | below the threshold | below the threshold | below the threshold | below the threshold | below the threshold | pKd [21]: below the threshold; pKd [22]: below the threshold; pKd [23]: 4.18; pKd [24]: 4.33; pKd [25]: below the threshold; pKd [26]: below the threshold; pKd [27]: below the threshold

Reference: paper PMC9482650, “Quantitative fragmentomics allow affinity mapping of interactomes” (Nature Communications, 2022)
